Results on 13 substances are retold here after paper PMC5814800.

The target in this experiment is T25-ϕC31 gp3 (wild type) fusion protein. In words: bacterial two-hybrid (B2H) β-galactosidase assay. Conditions: parent: est. 0.14; read off a plot.
As to “wild-type ϕC31 integrase fused to T18 (Int-T18 fusion, pEY111) (from UniProt Q9T221) W526F”, the response (ΔOD420/min/ml) amounted to 0.21.

As to “wild-type ϕC31 integrase fused to T18 (Int-T18 fusion, pEY111) (from UniProt Q9T221) I420V; I582V”, the response (ΔOD420/min/ml) turned out to be 0.021.

“wild-type ϕC31 integrase fused to T18 (Int-T18 fusion, pEY111) (from UniProt Q9T221) I582T”: the response (ΔOD420/min/ml) was 0.068. Take “wild-type ϕC31 integrase fused to T18 (Int-T18 fusion, pEY111) (from UniProt Q9T221) W526R”: the response (ΔOD420/min/ml) was found to be 0.008. For “wild-type ϕC31 integrase fused to T18 (Int-T18 fusion, pEY111) (from UniProt Q9T221) I420V” the value was 0.13; for “wild-type ϕC31 integrase fused to T18 (Int-T18 fusion, pEY111) (from UniProt Q9T221) I420A; I582T”, -0.009. For the substance “wild-type ϕC31 integrase fused to T18 (Int-T18 fusion, pEY111) (from UniProt Q9T221) I582L”, the response (ΔOD420/min/ml) came to 0.15.

For the substance “wild-type ϕC31 integrase fused to T18 (Int-T18 fusion, pEY111) (from UniProt Q9T221) W526A”, the response (ΔOD420/min/ml) amounted to 0.023. Turning to “wild-type ϕC31 integrase fused to T18 (Int-T18 fusion, pEY111) (from UniProt Q9T221) I420A; I582V”, the response (ΔOD420/min/ml) is -0.016. For “wild-type ϕC31 integrase fused to T18 (Int-T18 fusion, pEY111) (from UniProt Q9T221) I582G” the value was 0.037; for “wild-type ϕC31 integrase fused to T18 (Int-T18 fusion, pEY111) (from UniProt Q9T221) I582A”, 0.027; for “wild-type ϕC31 integrase fused to T18 (Int-T18 fusion, pEY111) (from UniProt Q9T221) I582V”, 0.1.

For “wild-type ϕC31 integrase fused to T18 (Int-T18 fusion, pEY111) (from UniProt Q9T221) I420A”, the response (ΔOD420/min/ml) amounted to 0.019.
